Drawing on patent US20260265412A1, this text covers IC50 of inhibition of MASP3 enzymatic activity (cleavage of fluorescent tripeptide Boc-Val-Pro-Arg-AMC), Inhibit Hemolysis IC50 (alternative pathway, rabbit or guinea pig red blood cells) and Inhibit hemolysis IC50 (alternative pathway) for one substance.

Assay [1] deals with human MASP3-His (human) (UniProt P48740). The experiment in a line: cell-based or functional assay.
In assay [2] the target is MASP3 in Factor D depleted human plasma (human) (UniProt P48740). The experiment in a line: cell-based or functional assay.
Sequence of MASP3 in Factor D depleted human plasma (human) (P48740 other isoform, or with tags, fused parts or gaps): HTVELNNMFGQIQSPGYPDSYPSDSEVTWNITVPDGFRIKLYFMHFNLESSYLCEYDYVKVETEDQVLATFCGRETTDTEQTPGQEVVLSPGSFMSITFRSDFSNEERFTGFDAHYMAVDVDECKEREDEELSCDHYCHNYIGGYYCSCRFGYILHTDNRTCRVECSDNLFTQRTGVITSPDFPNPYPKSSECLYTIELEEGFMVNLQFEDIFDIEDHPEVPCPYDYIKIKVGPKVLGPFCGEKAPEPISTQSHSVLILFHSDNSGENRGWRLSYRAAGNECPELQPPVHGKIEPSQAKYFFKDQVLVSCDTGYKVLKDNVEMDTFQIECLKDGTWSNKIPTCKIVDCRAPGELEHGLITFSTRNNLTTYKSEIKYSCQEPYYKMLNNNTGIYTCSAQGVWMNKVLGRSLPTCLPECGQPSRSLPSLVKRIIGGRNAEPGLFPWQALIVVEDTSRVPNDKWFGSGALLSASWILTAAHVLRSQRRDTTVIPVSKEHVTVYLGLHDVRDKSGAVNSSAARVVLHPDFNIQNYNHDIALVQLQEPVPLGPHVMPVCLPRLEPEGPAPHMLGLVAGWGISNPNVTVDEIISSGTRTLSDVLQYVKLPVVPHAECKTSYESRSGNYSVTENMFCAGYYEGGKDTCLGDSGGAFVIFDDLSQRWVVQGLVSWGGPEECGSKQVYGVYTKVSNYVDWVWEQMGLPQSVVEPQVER

Sequence of human MASP3-His (human) (P48740 other isoform, or with tags, fused parts or gaps): as above

As for OMS906 (antibody), in assay [1], the IC50 of inhibition of MASP3 enzymatic activity (cleavage of fluorescent tripeptide Boc-Val-Pro-Arg-AMC) was determined as 200 nM. In assay [2], the Inhibit Hemolysis IC50 (alternative pathway, rabbit or guinea pig red blood cells) was determined as 13 nM and the Inhibit hemolysis IC50 (alternative pathway) worked out at 17.1 nM.
